Measured values: patent EP4053153A1

Assays:
[1] = target: human transferrin receptor (human) (UniProt P02786); test: MST (Monolith NT.115); His-tag-dye-labelled protein, TfR titrated
[2] = target: mouse transferrin receptor (mouse) (UniProt Q62351); test: as above
mouse transferrin receptor (mouse), sequence (Q62351 89-763 limits assumed): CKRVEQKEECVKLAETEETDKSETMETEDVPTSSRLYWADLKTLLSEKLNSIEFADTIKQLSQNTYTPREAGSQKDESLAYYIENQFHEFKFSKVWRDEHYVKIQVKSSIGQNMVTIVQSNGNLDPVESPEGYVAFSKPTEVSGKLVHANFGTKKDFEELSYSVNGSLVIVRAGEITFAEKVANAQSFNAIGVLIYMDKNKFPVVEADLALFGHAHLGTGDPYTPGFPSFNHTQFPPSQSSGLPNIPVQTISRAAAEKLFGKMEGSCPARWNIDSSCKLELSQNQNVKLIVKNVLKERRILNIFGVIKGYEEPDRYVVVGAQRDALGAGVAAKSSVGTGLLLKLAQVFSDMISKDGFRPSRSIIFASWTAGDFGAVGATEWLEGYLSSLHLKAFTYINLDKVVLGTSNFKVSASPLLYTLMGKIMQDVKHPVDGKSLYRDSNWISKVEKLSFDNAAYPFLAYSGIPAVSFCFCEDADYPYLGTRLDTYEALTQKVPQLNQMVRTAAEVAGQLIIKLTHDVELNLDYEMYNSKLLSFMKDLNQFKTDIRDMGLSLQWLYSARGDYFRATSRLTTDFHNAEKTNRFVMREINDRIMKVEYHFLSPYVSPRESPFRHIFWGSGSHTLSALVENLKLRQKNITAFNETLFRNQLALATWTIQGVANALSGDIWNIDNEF

human transferrin receptor (human), sequence (P02786 89-760 limits assumed): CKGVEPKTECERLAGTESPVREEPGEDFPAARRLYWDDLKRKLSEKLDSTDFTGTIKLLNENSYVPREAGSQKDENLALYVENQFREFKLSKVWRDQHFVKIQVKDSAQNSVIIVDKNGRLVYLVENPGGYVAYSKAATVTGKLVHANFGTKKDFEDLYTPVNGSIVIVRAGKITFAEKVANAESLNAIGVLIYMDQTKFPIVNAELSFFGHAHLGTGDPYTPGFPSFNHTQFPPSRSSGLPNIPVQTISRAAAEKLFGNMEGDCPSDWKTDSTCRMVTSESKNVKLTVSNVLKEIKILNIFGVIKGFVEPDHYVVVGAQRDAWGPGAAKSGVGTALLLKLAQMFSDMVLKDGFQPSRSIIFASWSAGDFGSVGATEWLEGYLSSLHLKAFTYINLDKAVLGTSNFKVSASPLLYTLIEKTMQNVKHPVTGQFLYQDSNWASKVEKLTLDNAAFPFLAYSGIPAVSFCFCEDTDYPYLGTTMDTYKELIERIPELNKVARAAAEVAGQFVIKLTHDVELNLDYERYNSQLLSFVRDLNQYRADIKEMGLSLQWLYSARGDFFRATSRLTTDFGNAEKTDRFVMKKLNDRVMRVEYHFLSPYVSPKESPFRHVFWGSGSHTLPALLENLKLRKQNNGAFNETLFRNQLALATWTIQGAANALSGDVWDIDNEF

| Kd [1] | Kd [2] | Substance |
| --- | --- | --- |
| 9.78 nM | 30.5 nM | DE-gp100-huHF (from UniProt P02794 1-183) |
| 18.5 nM | 48.3 nM | N-gp100-huHF (from UniProt P02794 1-183) |

| Substance | Kd [1] | Kd [2] |
| --- | --- | --- |
| N-AH1-huHF (from UniProt P02794 1-183) | 84.6 nM |  |
